# Results from patent US20040147432A1 (MERCK, published 2004).
# Like-named read-outs stand apart in the source and are kept apart here. Bridges are numbered along the chain shown (N, C = ends). Where no end group is shown, it is not given here. [ ]: non-standard residue; d: D form. Arg(NO2) = N=C(NCCC[C@H](N)C(=O)O)N[N+](=O)[O-]
# Key:
# [1] = target: T1, human melanin concentrating hormone type 2 receptor (MCH-2R) (human, UniProt Q969V1 1-340); test: SPA competition with [125I]-human MCH (Phe13, Tyr19) on receptor membranes
# T1 construct: also called MCH-R2
# T1 sequence (Q969V1 whole entry, form in doubt): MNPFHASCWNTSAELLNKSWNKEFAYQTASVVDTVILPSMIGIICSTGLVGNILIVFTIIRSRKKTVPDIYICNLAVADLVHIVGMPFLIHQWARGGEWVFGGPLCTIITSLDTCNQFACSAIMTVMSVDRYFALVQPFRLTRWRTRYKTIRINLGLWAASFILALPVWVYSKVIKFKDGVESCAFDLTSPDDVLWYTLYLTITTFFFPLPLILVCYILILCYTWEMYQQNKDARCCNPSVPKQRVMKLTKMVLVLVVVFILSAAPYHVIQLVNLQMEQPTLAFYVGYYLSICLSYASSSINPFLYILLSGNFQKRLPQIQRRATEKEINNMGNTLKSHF
# Protocol: (§1) For the SPA-based assay, WGA-PVT beads (NEN Life Sciences Products) were resuspended in Dulbecco's PBS with calcium and magnesium (500 mg beads in 4 ml PBS). […] The suspension was mixed gently for 20 minutes, 12.3 ml of assay buffer and protease inhibitors were added (final concentration given): 2 μg/ml leupeptin, 10 μM phosphoramidon, 40 μg/ml bacitracin, 5 μg/ml aprotinin, 0.1 mM Pefabloc.
# (§2) Coated beads were kept on ice until use. […] Binding reactions were allowed to proceed at room temperature for 3 hours. Quantitation was performed by scintillation counting (TopCount device).
# [2] = target: T1, human melanin concentrating hormone …; test: cell-based or functional assay
# human MCH-1R [3] = target: T2, human MCH-1R (human, UniProt Q99705 1-353); test: cell-based or functional assay
# T2 sequence (Q99705 whole entry, form in doubt): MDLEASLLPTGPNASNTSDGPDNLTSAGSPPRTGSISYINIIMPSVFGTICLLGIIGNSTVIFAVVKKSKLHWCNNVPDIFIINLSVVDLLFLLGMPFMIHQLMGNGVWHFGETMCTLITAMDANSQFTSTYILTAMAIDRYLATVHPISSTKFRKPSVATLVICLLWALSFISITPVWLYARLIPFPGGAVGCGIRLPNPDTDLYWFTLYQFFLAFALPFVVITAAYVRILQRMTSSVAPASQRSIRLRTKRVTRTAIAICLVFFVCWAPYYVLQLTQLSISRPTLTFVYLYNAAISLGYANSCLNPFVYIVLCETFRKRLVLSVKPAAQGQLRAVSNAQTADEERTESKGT
# human MCH-1R [4] = target: T2, human MCH-1R; test: SPA competition with [125I]-human MCH (Phe13, Tyr19) on receptor membranes
# Protocol: as §1, §2
# human MCH-1R [5] = target: T2, human MCH-1R; test: cell-based or functional assay; remark: listed apart in the source
# human MCH-1R [6] = target: T2, human MCH-1R; test: cell-based or functional assay; remark: listed apart in the source
# [7] = target: T1, human melanin concentrating hormone …; test: SPA competition with [125I]-human MCH (Phe13, Tyr19) on receptor membranes; remark: listed apart in the source
# Protocol: as §1, §2
# human MCH-1R [8] = target: T2, human MCH-1R; test: as above; remark: listed apart in the source
# Protocol: as §1, §2
# [9] = target: T1, human melanin concentrating hormone …; test: cell-based or functional assay; remark: listed apart in the source
# human MCH-1R [10] = target: T2, human MCH-1R; test: cell-based or functional assay; remark: listed apart in the source
# [11] = target: T1, human melanin concentrating hormone …; test: SPA competition with [125I]-human MCH (Phe13, Tyr19) on receptor membranes; remark: listed apart in the source
# Protocol: as §1, §2
# human MCH-1R [12] = target: T2, human MCH-1R; test: as above; remark: listed apart in the source
# Protocol: as §1, §2
# [13] = target: T1, human melanin concentrating hormone …; test: cell-based or functional assay; remark: listed apart in the source
Binder,IC50 [1],Activation % at 10 µM (aequorin functional assay) (human MCH-1R [6]),Activation % at 10 µM (aequorin functional assay) [9],EC50 (aequorin functional assay) [9],Activation % at 10 µM (aequorin functional assay) (human MCH-1R [10]),EC50 (aequorin functional assay) (human MCH-1R [10]),IC50 [11],IC50 (human MCH-1R [12]),further results
"Ac-RCML[dA][Arg(NO2)]VYRPC-NH2 (disulfide 2-11 (inferred), also called D-Ala^10, Arg(NO2)^11) [SEQ. ID. NO. 37]",490 nM,–,–,–,–,–,–,–,Activation % at 10 µM (aequorin functional assay) [2]: 34%; EC50 (aequorin functional assay) [2]: 260 nM; Activation % at 10 µM (aequorin functional assay) (human MCH-1R [3]): 0.1%; EC50 (aequorin functional assay) (human MCH-1R [3]): > 10000 nM
XCMLGRVYRPC (not fully specified; (?NH2)-Arg at position 6) [SEQ. ID. NO. 40],–,49%,–,–,–,–,–,–,Activation % at 10 µM (aequorin functional assay) [13]: 103%
"DFDMLRCMLGRVYRPCWQV (ligand, disulfide 7-16 (inferred), cyclic 19-amino acid peptide; also called hMCH; mammalian MCH) [human MCH (melanin-concentrating hormone), SEQ. ID. NO. 1]",0.5 nM,100%,100%,44.7 nM,100%,–,0.9 nM,–,Activation % at 10 µM (aequorin functional assay) [2]: 100%; EC50 (aequorin functional assay) [2]: 30.7 nM; Activation % at 10 µM (aequorin functional assay) (human MCH-1R [5]): 100%; Activation % at 10 µM (aequorin functional assay) [13]: 100%; EC50 (aequorin functional assay) [13]: 30.7 nM; IC50 [7]: 0.5 nM
"DFDMLRCMLGRVYAPCWQV (disulfide 7-16, also called Ala^14) [SEQ. ID. NO. 52]",–,–,81%,186 nM,97%,28.3 nM,62 nM,1.4 nM,–
"DFDMLRCMLGRVYRACWQV (disulfide 7-16, also called Ala^15) [SEQ. ID. NO. 53]",–,–,96%,84.2 nM,99%,34.7 nM,19 nM,1.9 nM,–

# More lines, main results first:
IC50 [1],Activation % at 10 µM (aequorin functional assay) (human MCH-1R [6]),Activation % at 10 µM (aequorin functional assay) [9],EC50 (aequorin functional assay) [9],Activation % at 10 µM (aequorin functional assay) (human MCH-1R [10]),EC50 (aequorin functional assay) (human MCH-1R [10]),IC50 [11],IC50 (human MCH-1R [12]),Binder,further results
2 nM,99%,–,–,–,–,–,–,"Ac-RCMLGRVYRPC-NH2 (disulfide 2-11 (inferred), positions numbered 6-16 as in hMCH) [truncated form of human MCH, SEQ. ID. NO. 2]",IC50 (human MCH-1R [4]): 1.4 nM; Activation % at 10 µM (aequorin functional assay) (human MCH-1R [5]): 99%; EC50 (aequorin functional assay) (human MCH-1R [5]): 20 nM; EC50 (aequorin functional assay) (human MCH-1R [6]): 20 nM; IC50 [7]: 2 nM; IC50 (human MCH-1R [8]): 0.5 nM
–,–,92%,1.5 nM,97%,40 nM,0.07 nM,0.6 nM,"DFDMLRCMLGRVFRPCYQV (disulfide 7-16, label prints Tyr^17 while the radioligand is Phe^13, Tyr^19; also called Phe^13, Tyr^17) [SEQ. ID. NO. 57]",–
–,–,95%,54.2 nM,100%,6.8 nM,5.1 nM,0.1 nM,"DFDMLRCMLGRVYRPCAQV (disulfide 7-16, also called Ala^17) [SEQ. ID. NO. 54]",–
–,–,97%,80.8 nM,99%,36.1 nM,9.5 nM,0.7 nM,"DFDMLRCMLGRVYRPCWAV (disulfide 7-16, also called Ala^18) [SEQ. ID. NO. 55]",–
–,–,99%,58.9 nM,100%,17.4 nM,8.7 nM,0.4 nM,"DFDMLRCMLGRVYRPCWQA (disulfide 7-16, also called Ala^19) [SEQ. ID. NO. 56]",–
